The text below walks through data of article PMC11045720, “Denaturing mass photometry for rapid optimization of chemical protein-protein cross-linking reactions” (Nature Communications, 2024).

The term stoichiometry N denotes the number of molecules, sites or subunits per partner or assembly.

This data set deals with the molecule itself. In words: cross-linking; formaldehyde 0.05% to 1% (vol/vol) on 1 mg/mL protein, 20 min at room temperature; read by denaturing mass photometry.

B1: L-Glutamate dehydrogenase from bovine liver (enzyme)
chain: not shown
notes: L-Glutamate dehydrogenase from bovine liver (Sigma); also called GLDH; source: bought: Sigma (from bovine liver)
In the case of B1, the “stoichiometry N” value was determined as 6.
